Assay results taken from US20250099504A1 (INSTITUTE OF HEMATOLOGY AND BLOOD DISEASES HOSPITAL CHINESE …, published 2025).

Biological target: T1, human CD7 (human, UniProt P09564 26-240)
T1 construct: whole, on cells; also called CD7 antigen; CD7 on the surface of Jurkat, Molt4, CCRF-CEM and Hut78 cells
T1 sequence (looked up): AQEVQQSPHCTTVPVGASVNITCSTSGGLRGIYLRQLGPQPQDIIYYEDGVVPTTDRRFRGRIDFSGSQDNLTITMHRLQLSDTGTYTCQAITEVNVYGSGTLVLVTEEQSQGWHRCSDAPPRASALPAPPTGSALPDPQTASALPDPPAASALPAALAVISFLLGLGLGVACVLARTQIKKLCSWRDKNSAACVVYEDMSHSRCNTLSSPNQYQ
Test: FACS on Jurkat, Molt4, CEM and Hut78 cells that highly express human CD7; antibody at 0.15 µg/100 µl
Description: Binding of the monoclonal antibody HIT7 in Example 1 and the commercialized CD7-6B7 antibody (Biolegend, PE/Cyanine7 anti-human CD7 antibody, clone number CD7-6B7) to CD7 on the surface of Jurkat, Molt4, CCRF-CEM, and Hut78 cells that highly expressed human CD7 was tested by FACS: The antibody was incubated at a concentration of 0.15 μg/100 μl with 2×10⁵ Jurkat, Molt4, CEM, and Hut78 cells respectively at 4° C. in dark for 30 minutes, washed twice with PBS, resuspended by 100 μl, and loaded for FACS test.

B1: monoclonal antibody HIT7 (antibody, V domains shown)
VH: QVQLQESGPGLVKPSQTVSLTCTVTGISITTGNYRWSWIRQFPGNKLEWIGYIYYSGIITYNPSRTSRTTITRDISKNQFFLEMNSLTAEDTATYYCARERGIYYDSLWYFDVWGAGTTVTVSS
VL: DIVLTQSPASLAVSLGQRATISCRASKSVSASGYSYMHWYQQKPGQPPKLLIYLASNLESGVPARFSGSGSGTDFTLNIHPVEEEDAVTYYCQHSRELPYTFGGGTKLEIKR
notes: also called CD7-HIT7 monoclonal antibody; mouse anti-human CD7 monoclonal antibody
binding result: binds
